Results from paper PMC6591306.

Experiments:
Assay in all cases: cysteine cross-linking, non-reducing SDS-PAGE, quantification of fluorescent blots
GB1 4.52/6.55 = conditions: + CuP, co-expressed with GB2Ctr, parent: est. 2, read off a plot
GB2^6.55 = conditions: + CuP; cell surface SNAP-GB1 labelled with fluorescent SNAP substrate; no ligand; parent: est. 2; read off a plot
[1] = target: double mutant of GB1 carrying one cysteine in TM5 (I771C^5.42) and one in TM7 (L838C^7.34); conditions: + CuP, co-expressed with GB2Ctr, parent: est. 2, read off a plot
GB2^5.40 = conditions: + CuP; cell surface SNAP-GB1 labelled with fluorescent SNAP substrate; no ligand; parent: est. 2; read off a plot
[2] = target: GB1 double cysteine mutant with one cysteine in TM4 and one in TM1 (co-expressed with a non-mutated GB2); conditions: + CuP, co-expressed with GB2Ctr, parent: est. 2, read off a plot
[3] = target: GB1 double cysteine mutant with one cysteine in TM4 and one in TM7 (co-expressed with a non-mutated GB2); conditions: + CuP, co-expressed with GB2Ctr, parent: est. 2, read off a plot
[4] = target: GB2^5.42 (cysteine mutant of GB2^Ctr at position 5.42) (UniProt O88871); conditions: + CuP; cell surface SNAP-GB1 labelled with fluorescent SNAP substrate; no ligand; parent: est. 2; read off a plot
GB2^5.45 = conditions: + CuP; cell surface SNAP-GB1 labelled with fluorescent SNAP substrate; no ligand; parent: est. 2; read off a plot
[5] = target: GB2 L711C^6.59 (in GB2^Ctr) (UniProt O88871); conditions: + CuP; cell surface SNAP-GB1 labelled with fluorescent SNAP substrate; no ligand; parent: est. 2; read off a plot
[6] = target: GB1 double cysteine mutant with one cysteine in TM5 and one in TM1 (co-expressed with a non-mutated GB2); conditions: + CuP, co-expressed with GB2Ctr, parent: est. 2, read off a plot
GB2^5.41 = conditions: + CuP; cell surface SNAP-GB1 labelled with fluorescent SNAP substrate; no ligand; parent: est. 2; read off a plot
GB1 1.45/6.55 = conditions: + CuP, co-expressed with GB2Ctr, parent: est. 2, read off a plot
GB2^6.54 = conditions: + CuP; cell surface SNAP-GB1 labelled with fluorescent SNAP substrate; no ligand; parent: est. 2; read off a plot

Q: Which results are given for “GB1^Ctr (control GABAB1 subunit: SNAP-tagged rat GB1a truncated in the C-terminal region) 4.52 Cys; 6.55 Cys”?
A: other: Oligomer (% total GB1) (GB1 4.52/6.55; + GABA 100 μM): 21 % total GB1; other: Oligomer (% total GB1) (GB1 4.52/6.55; no agonist): 16 % total GB1

Q: With m1; m2 GB1:6.55 Cys; GB2:6.55 Cys as the substance, how does the other: Change of GB1-GB2 dimer cross-linking (%) (GB2^6.55) read?
A: 32%

Q: How did the other: Oligomer (% total GB1) ([1]; + GABA 100 μM) turn out when “GB1^Ctr (control GABAB1 subunit: SNAP-tagged rat GB1a truncated in the C-terminal region) I771C; L838C” was run?
A: 2.5 % total GB1

Q: What about the other: Oligomer (% total GB1) ([1]; no agonist) of the same substance?
A: 1 % total GB1

Q: m1; m2 GB1:5.40 Cys; GB2:5.40 Cys was tested. Which other: Change of GB1-GB2 dimer cross-linking (%) (GB2^5.40) did it give?
A: 12%

Q: “GB1^Ctr (control GABAB1 subunit: SNAP-tagged rat GB1a truncated in the C-terminal region) 1.45 Cys; 4.52 Cys” was tested. Which other: Oligomer (% total GB1) ([2]; + GABA 100 μM) did it give?
A: 32 % total GB1

Q: And the other: Oligomer (% total GB1) ([2]; no agonist)?
A: 24 % total GB1

Q: For “GB1^Ctr (control GABAB1 subunit: SNAP-tagged rat GB1a truncated in the C-terminal region) 4.52 Cys; L838C”, which other: Oligomer (% total GB1) ([3]; + GABA 100 μM) is on record?
A: 12 % total GB1

Q: And the other: Oligomer (% total GB1) ([3]; no agonist)?
A: 7 % total GB1

Q: With m1; m2 GB1:I771C; GB2:5.42 Cys as the substance, how does the other: Change of GB1-GB2 dimer cross-linking (%) [4] read?
A: 14%

Q: With m1; m2 GB1:5.45 Cys; GB2:5.45 Cys as the substance, how does the other: Change of GB1-GB2 dimer cross-linking (%) (GB2^5.45) read?
A: 24%

Q: m1; m2 GB1:I824C; GB2:L711C was tested. Which other: Change of GB1-GB2 dimer cross-linking (%) [5] did it give?
A: 28%

Q: With “GB1^Ctr (control GABAB1 subunit: SNAP-tagged rat GB1a truncated in the C-terminal region) 1.45 Cys; I771C” as the substance, how does the other: Oligomer (% total GB1) ([6]; + GABA 100 μM) read?
A: 12 % total GB1

Q: What about the other: Oligomer (% total GB1) ([6]; no agonist) of the same substance?
A: 5 % total GB1

Q: How did the other: Change of GB1-GB2 dimer cross-linking (%) (GB2^5.41) turn out when m1; m2 GB1:5.41 Cys; GB2:5.41 Cys was run?
A: 28%

Q: For “GB1^Ctr (control GABAB1 subunit: SNAP-tagged rat GB1a truncated in the C-terminal region) 1.45 Cys; 6.55 Cys”, which other: Oligomer (% total GB1) (GB1 1.45/6.55; + GABA 100 μM) is on record?
A: 4 % total GB1

Q: What about the other: Oligomer (% total GB1) (GB1 1.45/6.55; no agonist) of the same substance?
A: 2.5 % total GB1

Q: For m1; m2 GB1:6.54 Cys; GB2:6.54 Cys, which other: Change of GB1-GB2 dimer cross-linking (%) (GB2^6.54) is on record?
A: 23%
